The subject of the series is HPPD polypeptides. Briefly: coupled HPPD activity assay: turnover and residual turnover in crude extracts. Type of series: biochemical, Pseudomonas fluorescens. Conditions: for Turnover: absence of Cmpd. 1, kinetic changes in absorbance (OD) at 320 nm, 30 min; for Turnover / Residual turnover: high substrate concentration; for Residual turnover: presence of 100 μM Cmpd. 1, changes in absorbance (OD) at 320 nm; for Residual turnover [%]: 100 μM Cmpd. 1, signal change with inhibitor divided by signal change without inhibitor. Here is the method:
The activity of HPPD polypeptides was determined in absence or presence of HPPD inhibitors using the coupled HPPD activity assay (FIG. 1).
For the determination of the residual activity, the apparent kinetic constant (kapp) of the determined substrate conversion was measured as kinetic changes in absorbance (OD) at 320 nm in a coupled assay, in that homogentisate (HGA) formed by HPPD from HPP is directly converted into the well absorbing molecule maleylacetoacetate (MAA) by a second enzyme homogentisate dioxygenase (HGD), applied in excess uniformly in all assays (see FIG. 1). The measurements were performed in 384 micro titer plates (Greiner Bio-One GmbH, Frickenhausen, Germany) by plate readers (Tecan infinite M1000 or M1000PRO, Tecan, Männedorf, Switzerland). The kcat/kM ratio of an enzymatic activity is proportional to the apparent kinetic constant kapp and is proportional to kcat/kM*[E] ([E]=enzyme concentration). […] As both kapp measurements in the presence and absence of inhibitor were performed by use of the identical enzyme sample, crude or purified, and thereby at the same enzyme concentration, the enzyme concentration eliminates from the calculation of residual activity and the ratio of both kapp directly indicates the change of kM due to the inhibition.
The assay solution used for determination of residual activities in raw HPPD polypeptide samples was composed by 200 mM sodium phosphate (Merck, Darmstadt, Germany, pH 7.0), 5 mM MgCl2 (Merck, Darmstadt, Germany), 20 mM ascorbate (Sigma-Aldrich, St. Louis, USA), 1 mM DTT (Sigma-Aldrich, St. Louis, USA), 0.1% Pluronic F-68 (Sigma-Aldrich, St. Louis, USA), 40 μM FeSO4 (Sigma-Aldrich, St. Louis, USA), about 8 mg/ml purified HGD and 500 μM HPP from a 1 M stock solution in DMSO (Sigma-Aldrich, St. Louis, USA) and equilibrated for 20 min on ice. For every HPPD polypeptide sample two assays were performed in quadruplets, whereby 5 μl of HPPD polypeptide sample were mixed firstly with 5 μl buffer (1×BugBuster®; (Merck, Darmstadt, Germany); in 140 mM Tris, pH 7.8, with 1:25000 diluted BNase®; Qiagen, Hilden, Germany)) or 5 μl inhibitor diluted in the same buffer from a 0.1 M stock solution in DMSO (200 μM resulting in 100 μM in the HPPD polypeptide/inhibitor sample) in the reference and inhibition assay, respectively, and subsequently with 10 μl assay solution. The change in absorbance at 320 nm was followed in 1 min intervals for 30 min. The kapp values were calculated as signal slope over time in the early phase of the kinetic reaction, usually for the first 5-10 minutes of the measurements. Additionally and according to the calculated residual activity, the total conversion, i.e. the absolute change in signal, in the 30 min timeframe was monitored as measure of turnover, and a residual turnover was calculated by dividing the change in signal in the presence of inhibitor by the change in signal in the reference sample without inhibitor.
Residual turnover were determined according to Example 3 by measuring total change in signal in the presence and absence of Cmpd. 1 (2-chloro-3-(methylsulfanyl)-N-(1-methyl-1H-tetrazol-5-yl)-4-(trifluoromethyl)benzamide). For each mutant HPPD polypeptide, the total change in signal without HPPD inhibitor herbicides served for normalization of the total change in signal in the presence of the herbicide.

B1: 71 (protein)
chain: MADLYENPMGLMGFEFIEFASPTPGTLEPIFEIMGFTKVATHRSKNVHLYRQGEINLILNNEPNSIASYFAAEHGPSVCGMAFRVKDSQKAYNRALELGAQPIHIDTGPMELNLPAIKGIGGAPLYLIDRFGEGSSIYDIDFVYLEGVERNPVGAGLKVIDHLTHNVYRGRMVYWANFYEKLFNFREARYFDIKGEYTGLTSKAMSAPDGMIRILLNEESSKGAGQIEEFLMQFNGEGIQHVAFLTDDLVKTWDALKKIGMRFMTAPPDTYYEMLEGRLPDHGEPVDQLQARGILLDGSSVEGDKRLLLQIFSETLMGPVFFEFIQRKGDDGFGPFNFKELFESIERDQVRRGVLTAD
modifications: mutant HPPD polypeptide
On to B1, for which the Turnover is 0.044 and the Residual turnover was found to be 0.022.

B2: 4 (protein)
chain: MADLYENPMGLMGFEFIEFASPTPGTLEPIFEIMGFTKVATHRSKNVHLYRQGEINLILNNEPNSIASYFAAEHGPSVCGMAFRVKDSQKAYNRALELGAQPIHIDTGPMELNLPAIKGIGGAPLYLIDRFGEGSSIYDIDFVYLEGVERNPVGAGLKVIDHLTHNVYRGRMVYWANFYEKLFNFREARYFDIKGEYTGLTSKAMSAPDGMIRIPLNEESSKGAGQIEEFLMQFNGEGIQHVAFLTDDLVKTWDALKKIGMRFMTAPGDTYYEMLEGRLPDHGEPVDQLQARGILLDGSSVEGDKRLLLQIFSETLMGPVFFEFIQRKGDDGFGPDSFKVLFESIERDQVRRGVLTAD
modifications: mutant HPPD polypeptide
For the molecule B2, the “Residual turnover [%]” value worked out at 44%, the Turnover stood at 0.126 and the Residual turnover is 0.055.

B3: 3 (protein)
chain: MADLYENPMGLMGFEFIEFASPTPGTLEPIFEIMGFTKVATHRSKNVHLYRQGEINLILNNEPNSIASYFAAEHGPSVCGMAFRVKDSQKAYNRALELGAQPIHIDTGPMELNLPAIKGIGGAPLYLIDRFGEGSSIYDIDFVYLEGVERNPVGAGLKVIDHLTHNVYRGRMVYWANFYEKLFNFREARYFDIKGEYTGLTSKAMSAPDGMIRIPLNEESSKGAGQIEEFLMQFNGEGIQHVAFLTDDLVKTWDALKKIGMRFMTAPADTYYEMLEGRLPDHGEPVDQLQARGILLDGSSVEGDKRLLLQIFSETLMGPVFFEFIQRKGDDGFGPDSFKVLFESIERDQVRRGVLTAD
modifications: mutant HPPD polypeptide
Regarding B3, the “Residual turnover [%]” value came out at 64%, the Turnover stood at 0.096 and the Residual turnover worked out at 0.061.

B4: 5 (protein)
chain: MADLYENPMGLMGFEFIEFASPTPGTLEPIFEIMGFTKVATHRSKNVHLYRQGEINLILNNEPNSIASYFAAEHGPSVCGMAFRVKDSQKAYNRALELGAQPIHIDTGPMELNLPAIKGIGGAPLYLIDRFGEGSSIYDIDFVYLEGVERNPVGAGLKVIDHLTHNVYRGRMVYWANFYEKLFNFREARYFDIKGEYTGLTSKAMSAPDGMIRIPLNEESSKGAGQIEEFLMQFNGEGIQHVAFLTDDLVKTWDALKKIGMRFMTAPPDTYYEMLEGRLPDHGEPVDQLQARGILLDGSSVEGDKRLLLQIFSETLMGPVFFEFIQRKGDDGFGPDSFKVLFESIERDQVRRGVLTAD
modifications: mutant HPPD polypeptide
B4: the “Residual turnover [%]” value worked out at 38%, the Turnover is recorded as 0.157 and the Residual turnover came to 0.059.

B5: 8 (protein)
chain: MADLYENPMGLMGFEFIEFASPTPGTLEPIFEIMGFTKVATHRSKNVHLYRQGEINLILNNEPNSIASYFAAEHGPSVCGMAFRVKDSQKAYNRALELGAQPIHIDTGPMELNLPAIKGIGGAPLYLIDRFGEGSSIYDIDFVYLEGVERNPVGAGLKVIDHLTHNVYRGRMVYWANFYEKLFNFREARYFDIKGEYTGLTSKAMSAPDGMIRIPLNEESSKGAGQIEEFLMQFNGEGIQHVAFLTDDLVKTWDALKKIGMRFMTAPPDNYYEMLEGRLPDHGEPVDQLQARGILLDGSSVEGDKRLLLQIFSETLMGPVFFEFIQRKGDDGFGPDSFKVLFESIERDQVRRGVLTAD
modifications: mutant HPPD polypeptide
Take B5: the “Residual turnover [%]” value is listed as 50%, the Turnover turned out to be 0.107 and the Residual turnover came to 0.054.

B6: 6 (protein)
chain: MADLYENPMGLMGFEFIEFASPTPGTLEPIFEIMGFTKVATHRSKNVHLYRQGEINLILNNEPNSIASYFAAEHGPSVCGMAFRVKDSQKAYNRALELGAQPIHIDTGPMELNLPAIKGIGGAPLYLIDRFGEGSSIYDIDFVYLEGVERNPVGAGLKVIDHLTHNVYRGRMVYWANFYEKLFNFREARYFDIKGEYTGLTSKAMSAPDGMIRIPLNEESSKGAGQIEEFLMQFNGEGIQHVAFLTDDLVKTWDALKKIGMRFMTAPADNYYEMLEGRLPDHGEPVDQLQARGILLDGSSVEGDKRLLLQIFSETLMGPVFFEFIQRKGDDGFGPDSFKVLFESIERDQVRRGVLTAD
modifications: mutant HPPD polypeptide
For B6, the “Residual turnover [%]” value is 50%, the Turnover is listed as 0.165 and the Residual turnover turned out to be 0.082.

B7: 9 (protein)
chain: MADLYENPMGLMGFEFIEFASPTPGTLEPIFEIMGFTKVATHRSKNVHLYRQGEINLILNNEPNSIASYFAAEHGPSVCGMAFRVKDSQKAYNRALELGAQPIHIDTGPMELNLPAIKGIGGAPLYLIDRFGEGSSIYDIDFVYLEGVERNPVGAGLKVIDHLTHNVYRGRMVYWANFYEKLFNFREARYFDIKGEYTGLTSKAMSAPDGMIRIPLNEESSKGAGQIEEFLMQFNGEGIQHVAFLTDDLVKTWDALKKIGMRFMTAPADTYYEMLEGRLPDHGEPVDQLQARGILLDGSSVEGDKRLLLQIFSETLMGPVFFEFIQRKGDDGFGPDSFKVLFESVERDQVRRGVLTAD
modifications: mutant HPPD polypeptide
Regarding B7, the “Residual turnover [%]” value came to 52%, the Turnover turned out to be 0.102 and the Residual turnover came out at 0.053.

B8: 10 (protein)
chain: MADLYENPMGLMGFEFIEFASPTPGTLEPIFEIMGFTKVATHRSKNVHLYRQGEINLILNNEPNSIASYFAAEHGPSVCGMAFRVKDSQKAYNRALELGAQPIHIDTGPMELNLPAIKGIGGAPLYLIDRFGEGSSIYDIDFVYLEGVERNPVGAGLKVIDHLTHNVYRGRMVYWANFYEKLFNFREARYFDIKGEYTGLTSKAMSAPDGMIRIPLNEESSKGAGQIEEFLMQFNGEGIQHVAFLTDDLVKTWDALKKIGMRFMTAPGDTYYEMLEGRLPDHGEPVDQLQARGILLDGSSVEGDKRLLLQIFSETLMGPVFFEFIQRKGDDGFGPDSFKVLFESVERDQVRRGVLTAD
modifications: mutant HPPD polypeptide
As to B8, the “Residual turnover [%]” value worked out at 56%, the Turnover is 0.125 and the Residual turnover was found to be 0.070.

B9: 7 (protein)
chain: MADLYENPMGLMGFEFIEFASPTPGTLEPIFEIMGFTKVATHRSKNVHLYRQGEINLILNNEPNSIASYFAAEHGPSVCGMAFRVKDSQKAYNRALELGAQPIHIDTGPMELNLPAIKGIGGAPLYLIDRFGEGSSIYDIDFVYLEGVERNPVGAGLKVIDHLTHNVYRGRMVYWANFYEKLFNFREARYFDIKGEYTGLTSKAMSAPDGMIRIPLNEESSKGAGQIEEFLMQFNGEGIQHVAFLTDDLVKTWDALKKIGMRFMTAPGDNYYEMLEGRLPDHGEPVDQLQARGILLDGSSVEGDKRLLLQIFSETLMGPVFFEFIQRKGDDGFGPDSFKVLFESIERDQVRRGVLTAD
modifications: mutant HPPD polypeptide
Regarding B9, the “Residual turnover [%]” value turned out to be 42%, the Turnover was 0.149 and the Residual turnover was found to be 0.063.

For the origin of these results see patent publication US11180770B2, “HPPD variants and methods of use” (BASF Agricultural Solutions Seed US LLC, priority 2017, dated 2021).
